# According to PMC11710176 (Alzheimer's & Dementia, 2024):
# Values joined by “and” are separate entries in the source; they are usually repeats but may differ in a detail not shown here. Identical values can stand only once.
# B1: cellular prion protein (natural protein)
# chain: not shown
# notes: also called PrP^C; PrPC
# Target: tau oligomers (UniProt P10636 1-758)
# Assay: SPR; who was immobilised and the conditions not given
# Conditions: both partners purified
binder,measurement,value
B1,Kd,20 nM and 50 nM
